Measurements reported in article PMC5121632.
Several values for one entry are separate records, joined by “and”; a condition that tells them apart may be missing. Equal entries are not always repeated.

Experiments:
[1] = tested on: CT-TALE (dAvrBs3 TALE without periodic non-RVD mutations at repeat positions 4 and 32); experiment: ITC; conditions: ITC: 50 mM Tris-HCl pH 8.0, 200 mM NaCl, 1 mM DTT, 5% glycerol; 15 and 25 °C; 96 μM DNA injected into TALE; single-site model
[2] = tested on: VT-TALE (dAvrBs3 TALE with periodic non-RVD mutations at repeat positions 4 and 32); experiment: ITC; conditions: ITC: 50 mM Tris-HCl pH 8.0, 200 mM NaCl, 1 mM DTT, 5% glycerol; 15 and 25 °C; 96 μM DNA injected into TALE; single-site model

| Sequence | Kd [1] | Kd [2] |
| --- | --- | --- |
| GGGTATACTCACACAATAGCTGGG (double strand) [EBEf] | 139 nM and 346 nM | 131 nM and 326 nM |
| GGGTATACTCACTGGGTGTGGGGG (double strand) [EBEn] | 109 nM and 305 nM | 117 nM and 262 nM |
